Measurements published in patent US20140287434.

Tests used:
[1] = tested on: Btk SH3-SH2 (Btk 32)
[2] = tested on: Btk SH3
[3] = tested on: Lck peptide substrate (YIYGSFK) attached to the carboxy-terminus of the Itk SH2 domain

Chain of FLAG-tagged Btk full-length enzyme (Q06187 whole entry): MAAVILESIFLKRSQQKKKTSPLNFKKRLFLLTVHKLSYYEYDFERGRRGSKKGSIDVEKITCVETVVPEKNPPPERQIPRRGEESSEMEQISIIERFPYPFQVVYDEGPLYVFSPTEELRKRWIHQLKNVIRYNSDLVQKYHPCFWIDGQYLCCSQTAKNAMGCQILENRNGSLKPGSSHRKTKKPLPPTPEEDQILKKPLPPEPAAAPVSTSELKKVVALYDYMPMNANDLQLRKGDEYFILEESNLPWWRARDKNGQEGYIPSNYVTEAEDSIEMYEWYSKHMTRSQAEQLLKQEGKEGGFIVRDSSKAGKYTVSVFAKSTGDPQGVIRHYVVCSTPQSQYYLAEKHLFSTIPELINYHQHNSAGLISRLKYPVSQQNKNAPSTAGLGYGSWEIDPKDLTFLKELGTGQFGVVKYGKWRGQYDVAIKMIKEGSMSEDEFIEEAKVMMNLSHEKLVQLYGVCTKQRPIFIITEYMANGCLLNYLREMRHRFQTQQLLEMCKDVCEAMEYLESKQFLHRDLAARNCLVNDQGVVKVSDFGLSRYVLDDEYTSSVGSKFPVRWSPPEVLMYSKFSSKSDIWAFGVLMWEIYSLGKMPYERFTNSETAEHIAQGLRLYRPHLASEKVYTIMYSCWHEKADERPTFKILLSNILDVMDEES

Substance	phosphorylation on Y223 in an in vitro kinase assay [1]	phosphorylation on Y223 in an in vitro kinase assay [2]	phosphorylation by Lck kinase domain (32P, scintillation counting) against the free peptide YIYGSFK [3]
FLAG-tagged Btk full-length enzyme	only substrates that contain both the site of phosphorylation (Y180 for Itk, Y187 for Tec, Y223 for Btk, and Y783 for PLCγ1) and the adjacent SH2 domain are phosphorylated by the Tec kinases	are not phosphorylated by the Tec and Btk kinases	–
His-tagged wild type Lck kinase domain	–	–	most efficiently phosphorylated when attached to the carboxy-terminus of the SH2 domain and this tethered substrate is a better substrate by an order of magnitude
